These results are taken from patent publication US20220002669A1 (JUNO THERAPEUTICS, published 2022).

In experiment [1] the target is T1, STREP-TACTIN M2 covalently coupled to Sephadex G50 stationary phase (Streptomyces avidinii, UniProt P22629 38-163, covalently coupled to cyanogen bromide (CNBr) activated Sephadex G50 resin).
T1 construct: Here it is immobilised on the chromatography matrix; also called immobilized Strep-Tactin reagent; selection reagent
Briefly: loading of tagged Fab onto Strep-Tactin Sephadex G50 resin.
Description: A 50% suspension of Sephadex G50 contained approximately 70 μg of covalently coupled 7 Strep-Tactin®/mL of the bead suspension. […] The suspension was then filled in a plastic minicolumn with a 90 micrometer frit at the bottom. The column was equilibrated with PBS (phosphate buffered saline) containing 0.5% bovine serum albumin (PBSA buffer) to give a bed volume of 1 mL.

For experiment [2], the target named is T2, CD4 on the surface of T cells from a human donor apheresis sample (human, UniProt P01730 26-458).
T2 construct: whole, on cells; also called selection marker
Briefly: column affinity selection of T cells from a human apheresis sample.
Description: The column was equilibrated with PBS (phosphate buffered saline) containing 0.5% bovine serum albumin (PBSA buffer) to give a bed volume of 1 mL.
As a control, an apheresis sample was loaded onto the anti-CD3 affinity column but without incubation in the presence of the anti-CD3/anti-CD28 oligomeric stimulatory reagent.

B1: anti-CD4 binding Fab fragment obtained from m13B8.2, heavy chain carboxy-terminally fused with a Twin Strep-Tag (Fab, V domains shown)
VH: QVQLKQSGPGLVQPSQSLSITCTVSGFSLTTFGVHWVRQSPGKGLEWLGVIWASGITDYNVPFMSRLSITKDNSKSQVFFKLNSLQPDDTAIYYCAKNDPGTGFAYWGQGTLVTVSA
VL: DIQMTQSPASLSASVGETVTFTCRASEMIYSYLAWYQQKQGKSPQLLVHDAKTLAEGVPSRFSGGGSGTQFSLKINTLQPEDFGTYYCQAHYGNPPTFGGGTKLEIKR
notes: also called anti-CD4 Fab
In the case of B1, the binding result in experiment [1] and in experiment [2] was “binds” throughout.
